Experimental data: article PMC8865451 (Journal of Virology, 2021)

Target: hyper-IL-6 (HIL-6)
Assay: SPR

Sequence of hyper-IL-6 (HIL-6) (A0N0L4 whole entry): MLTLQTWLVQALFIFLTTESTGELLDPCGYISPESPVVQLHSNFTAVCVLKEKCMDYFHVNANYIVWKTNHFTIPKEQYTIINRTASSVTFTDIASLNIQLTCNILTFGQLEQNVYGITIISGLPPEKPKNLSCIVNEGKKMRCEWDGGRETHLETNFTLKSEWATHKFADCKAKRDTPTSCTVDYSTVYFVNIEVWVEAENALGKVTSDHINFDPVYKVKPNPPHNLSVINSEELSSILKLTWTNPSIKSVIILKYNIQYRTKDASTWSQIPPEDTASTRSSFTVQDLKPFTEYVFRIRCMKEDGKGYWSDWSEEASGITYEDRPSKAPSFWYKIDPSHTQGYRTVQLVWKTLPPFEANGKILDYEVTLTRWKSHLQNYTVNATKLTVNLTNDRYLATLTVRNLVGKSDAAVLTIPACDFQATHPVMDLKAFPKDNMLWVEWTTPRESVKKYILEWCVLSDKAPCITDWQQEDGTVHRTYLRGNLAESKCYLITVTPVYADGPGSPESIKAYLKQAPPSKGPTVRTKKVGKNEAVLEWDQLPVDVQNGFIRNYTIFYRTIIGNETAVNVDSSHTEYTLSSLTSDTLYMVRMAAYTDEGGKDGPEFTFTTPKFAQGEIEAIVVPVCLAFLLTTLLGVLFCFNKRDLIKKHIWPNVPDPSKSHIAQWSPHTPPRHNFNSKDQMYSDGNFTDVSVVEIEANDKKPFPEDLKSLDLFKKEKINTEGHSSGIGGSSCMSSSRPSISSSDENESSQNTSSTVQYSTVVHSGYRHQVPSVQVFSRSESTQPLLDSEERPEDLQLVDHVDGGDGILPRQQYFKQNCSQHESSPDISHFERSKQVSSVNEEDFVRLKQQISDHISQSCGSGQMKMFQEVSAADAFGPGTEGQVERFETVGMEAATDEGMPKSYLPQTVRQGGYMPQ

B1: c19s130Fc (Fc fusion)
chain: ELLDPCGYISPESPVVQLHSNFTAVCVLKEKCMDYFHVNANYIVWKTNHFTIPKEQYTIINRTASSVTFTDIASLNIQLTCNILTFGQLEQNVYGITIISGLPPEKPKNLSCIVNEGKKMRCEWDGGRETHLETNFTLKSEWATHKFADCKAKRDTPTSCTVDYSTVYFVNIEVWVEAENALGKVTSDHINFDPVYKVKPNPPHNLSVINSEELSSILKLTWTNPSIKSVIILKYNIQYRTKDASTWSQIPPEDTASTRSSFTVQDLKPFTEYVFRIRCMKEDGKGYWSDWSEEASGITYEDDVQFVESGGGSVHAGGSLRLNCATSGYIYSTYCMGWFRQAPGKEREGVAHIYTNSGRTYYADSVKGRFTISQDNAKNTVYLQMNSLKPEDTAIYYCAARPSIRCASFSATEYKDWGQGTQVTVSSTGGGGSGGGGSGGGGTGQVQLQESGGGLVQAGGSLRLSCAASGRTFSEYAMGWFRQAPGKEREFVATISWSGGSTYYTDSVKGRFTISRDNAKNTVYLQMNSLKPDDTAVYYCAAAGLGTVVSEWDYDYDYWGQGTQVTVSS
  Kd: 0.055 nM
  koff: 7.1e-05 s⁻¹
